From publication PMC2782133, “Interaction of HP1 and Brg1/Brm with the Globular Domain of Histone H3 Is Required for HP1-Mediated Repression” (PLoS Genetics, 2009)

How the values were obtained:
[1] = target: T1, GST-HP1γ (human, UniProt Q13185 1-183); assay: pull-down; GST fusion proteins bound to agarose beads incubated with purified histones, recombinant B10-tagged H3 constructs or purified Brg1-flag; ELB buffer (50mM HEPES pH 7, 250mM NaCl, 1mM EDTA, 0.1% NP40); elution with 20mM glutathione; western blot (anti-H3, anti-B10 or anti-Brg1); details: both partners purified
T1 construct: HP1γ

[2] = target: T2, GST-HP1α (human, UniProt P45973 1-191); assay: as above; details: both partners purified
T2 construct: HP1α, human; also called HP1α-derived GST-fusion protein
T2 sequence (P45973 whole entry, the tested form may be a part): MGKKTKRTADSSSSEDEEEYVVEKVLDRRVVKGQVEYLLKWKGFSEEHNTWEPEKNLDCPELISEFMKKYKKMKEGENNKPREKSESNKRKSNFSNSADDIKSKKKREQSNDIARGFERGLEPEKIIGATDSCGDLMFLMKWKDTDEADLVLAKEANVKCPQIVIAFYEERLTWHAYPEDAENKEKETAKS

T1 sequence (Q13185 whole entry, the tested form may be a part): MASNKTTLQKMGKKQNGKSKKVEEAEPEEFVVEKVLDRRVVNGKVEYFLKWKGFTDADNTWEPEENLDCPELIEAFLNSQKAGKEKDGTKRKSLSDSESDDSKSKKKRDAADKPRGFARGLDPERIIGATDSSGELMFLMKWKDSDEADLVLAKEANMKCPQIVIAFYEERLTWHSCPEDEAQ

Binder	binding result [1]	fold excess of HP1α over Brg1 needed for similar binding [2]
GTVALREIRRYQKSTELLIRKLP (domain or fragment, UniProt P68431 45-67, looked up, histone H3 aa 44-66, recombinant; also called histone H3 aa 44 to 66) [rH3(44–66), B10/6xHIS-tagged]	binds	
rH3(35–66), B10/6xHIS-tagged (domain or fragment, histone H3 aa 35-66 (V35 to P66), recombinant; also called Shadock; histone H3 aa 35 to 66) not shown	binds	~50 fold
rH3(35–66)V46A, B10/6xHIS-tagged (domain or fragment, histone H3 aa 35-66 with the valine of the PXXVXL motif mutated; also called mutant B10-tagged fragment of histone H3 (aa 35 to 66)) not shown	binds	
